Laboratory results: patent EP1262190A1, “RFRP-CONTAINING PROLACTIN SECRETION REGULATORY AGENT” (Takeda Chemical Industries, Ltd., priority 2000, dated 2001)

Molecular target: human 0T7T022 receptor (human)
Experiment: cell-based or functional assay

| Substance | ED50, inhibition of the cAMP level increased by forskolin [nM] |
| --- | --- |
| hRFRP-1-37 (peptide having the 56 (Ser) to 92 (Phe) amino acid sequence in SEQ ID NO:1) | 21 |
| rRFRP-1-37 (peptide having the 58 (Ser) to 94 (Phe) amino acid sequence in SEQ ID NO:50) | 30 |
